Laboratory results as given in the supplement of paper PMC10724198.
± gives the standard deviation of the averaged measurements.

What was measured:
Experiment in all cases: protein stability index of tFT-peptide fusion (C-terminal peptide) (PSI (0-1 scale)); higher = more stable (slower turnover)
Saccharomyces cerevisiae [1] = conditions: temperature: 30 C
Protocol: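 MPS profiling in S. cerevisiae of the yeast C-terminome library: the last 12 aa of each annotated ORF are fused to the C-terminus of a sfGFP-mCherry timer, after a GGGS linker. Cells are FACS-sorted into 8 mCherry/sfGFP bins and deep-sequenced. PSI runs from 0 (unstable) to 1 (stable); wild type and das1Δ backgrounds, two technical replicates each.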

Saccharomyces cerevisiae [2] = test system: Saccharomyces cerevisiae
Protocol: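 MPS profiling in S. cerevisiae of the tFT-X12 degron library: putative degron peptides plus stable controls, 12 aa, fused to the C-terminus of a sfGFP-mCherry timer. Cells are FACS-sorted into 8 mCherry/sfGFP bins and deep-sequenced. PSI runs from 0 (unstable) to 1 (stable). Backgrounds are wild type, das1Δ and doa10Δ at 30 °C, and wild type, das1Δ, cdc34-1 and cdc53-1 at 37 °C; 2-3 technical replicates each.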

Saccharomyces cerevisiae [3] = conditions: genetic background: wild type; temperature: 30 C
[4] = genetic background: das1 deletion
[5] = genetic background: cdc34-1, temperature: 37 C
[6] = genetic background: cdc53-1, temperature: 37 C
[7] = genetic background: das1 deletion, temperature: 30 C
[8] = genetic background: das1 deletion, temperature: 37 C
[9] = genetic background: doa10 deletion, temperature: 30 C
[10] = genetic background: wild type, temperature: 30 C
[11] = genetic background: wild type, temperature: 37 C

| Sequence | protein stability index (Saccharomyces cerevisiae [1]; [4]) | protein stability index (Saccharomyces cerevisiae [1]; genetic background: wild type) | protein stability index (Saccharomyces cerevisiae [2]; [5]) | protein stability index (Saccharomyces cerevisiae [2]; [6]) | protein stability index (Saccharomyces cerevisiae [2]; [7]) | protein stability index (Saccharomyces cerevisiae [2]; [8]) | protein stability index (Saccharomyces cerevisiae [2]; [9]) | protein stability index (Saccharomyces cerevisiae [2]; [10]) | protein stability index (Saccharomyces cerevisiae [2]; [11]) | protein stability index (Saccharomyces cerevisiae [3]) |
| --- | --- | --- | --- | --- | --- | --- | --- | --- | --- | --- |
| IRDEGLNNLDTA [YPL257W C-terminal 12 aa] | 0.6944 ± 0.006 | 0.704 ± 0.019 |  |  |  |  |  |  |  |  |
| STATGKLKKRKM [RAD2 C-terminal 12 aa] | 0.718 ± 0.023 | 0.649 ± 0.021 |  |  |  |  |  |  |  |  |
| LYLLLARVFEIW [SNF11 C-terminal 12 aa] | 0.567 ± 0.059 | 0.5614 ± 0.0025 |  |  |  |  |  |  |  |  |
| QYMTSGYASNWN [YAR061W C-terminal 12 aa] | 0.715 ± 0.11 | 0.754 ± 0.096 |  |  |  |  |  |  |  |  |
| KKIIKKKDFYHR [YOR011W-A C-terminal 12 aa] | 0.728 ± 0.015 | 0.706 ± 0.04 |  |  |  |  |  |  |  |  |
| QKNKKRKFSDTS [RNT1 C-terminal 12 aa] | 0.696 ± 0.019 | 0.701 ± 0.018 |  |  |  |  |  |  |  |  |
| CNYYYHPRITFA [RMT2 C-terminal 12 aa] | 0.6909 ± 0.0037 | 0.708 ± 0.039 |  |  |  |  |  |  |  |  |
| HYPSSDIRGDIL [YOR161C-C C-terminal 12 aa] | 0.6911 ± 0.0014 | 0.69973 ± 0.00023 |  |  |  |  |  |  |  |  |
| SSSLSPSLSSWP [YJL020W-A C-terminal 12 aa] | 0.739 ± 0.051 | 0.778 ± 0.17 |  |  |  |  |  |  |  |  |
| MNAAENEVKKEK [SUR2 C-terminal 12 aa] | 0.688 ± 0.016 | 0.669 ± 0.027 |  |  |  |  |  |  |  |  |
| KLVWTLQSLCMR [YEL032C-A C-terminal 12 aa] | 0.688 ± 0.0084 | 0.681 ± 0.021 |  |  |  |  |  |  |  |  |
| ENYYPSSLTLDI [JLP1 C-terminal 12 aa] | 0.72281 ± 0.00028 | 0.696 ± 0.062 |  |  |  |  |  |  |  |  |
| LIHASSVEQATA [MRPL4 C-terminal 12 aa] | 0.68 ± 0.016 | 0.6986 ± 0.0057 |  |  |  |  |  |  |  |  |
| YEAKLSKRILRD [SCM3 C-terminal 12 aa] | 0.7215 ± 0.0071 | 0.723 ± 0.0073 |  |  |  |  |  |  |  |  |
| IVKAVKEVLSIE [PDB1 C-terminal 12 aa] | 0.683 ± 0.0044 | 0.667 ± 0.044 |  |  |  |  |  |  |  |  |
| SKYNCNIPACCV [YLR122C C-terminal 12 aa] | 0.654 ± 0.017 | 0.6636 ± 0.0051 |  |  |  |  |  |  |  |  |
| GIMVSPMKTNQR [SWI5 C-terminal 12 aa] | 0.708 ± 0.025 | 0.6993 ± 0.0062 |  |  |  |  |  |  |  |  |
| KKGETFGYDKWW [OPT1 C-terminal 12 aa] | 0.725 ± 0.021 | 0.683 ± 0.032 |  |  |  |  |  |  |  |  |
| AFKRVFWALWWM |  |  | 0.367 ± 0.01 | 0.39 ± 0.0072 | 0.421 ± 0.03 | 0.563 ± 0.039 | 0.431 ± 0.032 | 0.299 ± 0.022 | 0.43827 ± 0.00033 | 0.36 ± 0.014 |
| ILAVMFEIYAIL |  |  | 0.422 ± 0.013 | 0.5124 ± 0.0015 | 0.349 ± 0.042 | 0.533 ± 0.0094 | 0.185 ± 0.018 | 0.228 ± 0.029 | 0.42 ± 0.023 | 0.3593 ± 0.0012 |
| SLVLLVASVTGS |  |  | 0.507 ± 0.0053 | 0.546 ± 0.013 | 0.385 ± 0.024 | 0.5781 ± 0.0054 | 0.347 ± 0.01 | 0.384 ± 0.03 | 0.553 ± 0.017 | 0.464 ± 0.016 |
| WFAHGLRHFRIL |  |  | 0.653 ± 0.081 | 0.76058 ± 0.00075 | 0.661 ± 0.0098 | 0.742 ± 0.027 | 0.273 ± 0.016 | 0.299 ± 0.012 | 0.532 ± 0.034 | 0.375 ± 0.068 |

| Sequence | protein stability index (Saccharomyces cerevisiae [1]; [4]) | protein stability index (Saccharomyces cerevisiae [1]; genetic background: wild type) | protein stability index (Saccharomyces cerevisiae [2]; [5]) | protein stability index (Saccharomyces cerevisiae [2]; [6]) | protein stability index (Saccharomyces cerevisiae [2]; [7]) | protein stability index (Saccharomyces cerevisiae [2]; [8]) | protein stability index (Saccharomyces cerevisiae [2]; [9]) | protein stability index (Saccharomyces cerevisiae [2]; [10]) | protein stability index (Saccharomyces cerevisiae [2]; [11]) | protein stability index (Saccharomyces cerevisiae [3]) |
| --- | --- | --- | --- | --- | --- | --- | --- | --- | --- | --- |
| LVLALTPFLHSF |  |  | 0.639 ± 0.01 | 0.701 ± 0.017 | 0.638 ± 0.021 | 0.727 ± 0.012 | 0.239 ± 0.0075 | 0.284 ± 0.018 | 0.551 ± 0.0073 | 0.399 ± 0.0069 |
| SLIVLRSIAVLD |  |  | 0.484 ± 0.015 | 0.505 ± 0.027 | 0.39 ± 0.02 | 0.543 ± 0.038 | 0.3743 ± 0.0022 | 0.392 ± 0.025 | 0.518 ± 0.013 | 0.449 ± 0.012 |
| FIPPRTYCLMIG |  |  | 0.57632 ± 0.00037 | 0.682 ± 0.0096 | 0.58 ± 0.0063 | 0.693 ± 0.011 | 0.219 ± 0.0046 | 0.233 ± 0.026 | 0.297 ± 0.015 | 0.323 ± 0.024 |
| VFMTLHCITIYK |  |  | 0.452 ± 0.016 | 0.537 ± 0.068 | 0.379 ± 0.029 | 0.519 ± 0.052 | 0.338 ± 0.0065 | 0.348 ± 0.051 | 0.547 ± 0.0084 | 0.458 ± 0.0029 |
| RHAHPLTAQLPL |  |  | 0.683 ± 0.031 | 0.707 ± 0.024 | 0.657 ± 0.026 | 0.747 ± 0.0096 | 0.694 ± 0.021 | 0.671 ± 0.042 | 0.7168 ± 0.0032 | 0.7048 ± 0.0032 |
| SVFGVRARFGSV |  |  | 0.766 ± 0.0082 | 0.803 ± 0.013 | 0.709 ± 0.018 | 0.781 ± 0.027 | 0.707 ± 0.046 | 0.724 ± 0.018 | 0.7738 ± 0.0016 | 0.756 ± 0.014 |
| LFGFYFVRCLVW |  |  | 0.113 ± 0.0026 | 0.168 ± 0.022 | 0.178 ± 0.022 | 0.263 ± 0.012 | 0.16 ± 0.017 | 0.159 ± 0.0095 | 0.23 ± 0.0099 | 0.226 ± 0.0096 |
| RFFKMREAIRIS |  |  | 0.567 ± 0.088 | 0.5742 ± 0.00075 | 0.392 ± 0.022 | 0.59 ± 0.052 | 0.205 ± 0.0066 | 0.24 ± 0.032 | 0.482 ± 0.0067 | 0.339 ± 0.027 |
| FVFLVLGPYAMF |  |  | 0.444 ± 0.032 | 0.512 ± 0.013 | 0.354 ± 0.028 | 0.609 ± 0.048 | 0.346 ± 0.013 | 0.341 ± 0.01 | 0.556 ± 0.019 | 0.415 ± 0.0026 |
| GWCLLRVLVLVW |  |  | 0.0502 ± 0.035 | 0.043 ± 0.0082 | 0.0937 ± 0.023 | 0.107 ± 0.0087 | 0.104 ± 0.024 | 0.0811 ± 0.02 | 0.0921 ± 0.035 | 0.175 ± 0.022 |
| WFIPRSVCRWLF |  |  | 0.515 ± 0.067 | 0.684 ± 0.028 | 0.611 ± 0.023 | 0.676 ± 0.033 | 0.0895 ± 0.017 | 0.0735 ± 0.026 | 0.116 ± 0.023 | 0.135 ± 0.0067 |
| IGFSPSFQLYSA |  |  | 0.726 ± 0.0078 | 0.756 ± 0.012 | 0.666 ± 0.0083 | 0.77318 ± 9.2e-05 | 0.6445 ± 0.0049 | 0.67 ± 0.016 | 0.747 ± 0.012 | 0.721 ± 0.0083 |
| VSLCVVYGLVVG |  |  | 0.337 ± 0.024 | 0.377 ± 0.022 | 0.29 ± 0.029 | 0.446 ± 0.015 | 0.2523 ± 0.0025 | 0.289 ± 0.022 | 0.411 ± 0.0082 | 0.373 ± 0.017 |
| PHRLSRFILRLL |  |  | 0.562 ± 0.027 | 0.683 ± 0.014 | 0.65 ± 0.033 | 0.703 ± 0.013 | 0.118 ± 0.0059 | 0.119 ± 0.019 | 0.219 ± 0.015 | 0.194 ± 0.041 |
| VWSWFVIYFFFC |  |  | 0.358 ± 0.025 | 0.388 ± 0.0079 | 0.335 ± 0.029 | 0.497 ± 0.013 | 0.366 ± 0.02 | 0.324 ± 0.014 | 0.444 ± 0.02 | 0.368 ± 0.0054 |
| GCDVWCLVLRMG |  |  | 0.651 ± 0.016 | 0.68429 ± 0.00024 | 0.517 ± 0.0083 | 0.676 ± 0.031 | 0.418 ± 0.013 | 0.435 ± 0.019 | 0.63 ± 0.025 | 0.47 ± 0.018 |
| ARFCFRIFSFAS |  |  | 0.159 ± 0.018 | 0.178 ± 0.0049 | 0.288 ± 0.032 | 0.168 ± 0.0092 | 0.0406 ± 0.0038 | 0.0456 ± 0.0018 | 0.0722 ± 0.018 | 0.0816 ± 0.0097 |
| CEVLVVVMCLWG |  |  | 0.199 ± 0.0023 | 0.295 ± 0.043 | 0.224 ± 0.029 | 0.3738 ± 0.0025 | 0.196 ± 0.006 | 0.217 ± 0.025 | 0.32342 ± 4.2e-05 | 0.285 ± 0.024 |
| WSHVPLAPLSCF |  |  | 0.43 ± 0.017 | 0.442 ± 0.0048 | 0.337 ± 0.023 | 0.477 ± 0.0073 | 0.287 ± 0.0032 | 0.315 ± 0.023 | 0.42596 ± 0.00033 | 0.4567 ± 0.0039 |
| SFSIPILLLAFP |  |  | 0.264 ± 0.018 | 0.2229 ± 0.00014 | 0.311 ± 0.022 | 0.409 ± 0.011 | 0.451 ± 0.026 | 0.314 ± 0.021 | 0.3719 ± 0.0017 | 0.425 ± 0.006 |
| VTSVARVVLHLL |  |  | 0.526 ± 0.018 | 0.681 ± 0.031 | 0.606 ± 0.027 | 0.7016 ± 0.0041 | 0.0931 ± 0.019 | 0.115 ± 0.021 | 0.165 ± 0.0027 | 0.3069 ± 0.0026 |
| WFGCSTVWVRVQ |  |  | 0.286 ± 0.055 | 0.394 ± 0.0052 | 0.328 ± 0.037 | 0.502 ± 0.0075 | 0.0767 ± 0.0031 | 0.0787 ± 0.024 | 0.0591 ± 0.021 | 0.147 ± 0.0067 |
